Experimental data as given in article PMC2756588.

T1: Sla1-2, P32790
T1 sequence (P32790 60-140, looked up): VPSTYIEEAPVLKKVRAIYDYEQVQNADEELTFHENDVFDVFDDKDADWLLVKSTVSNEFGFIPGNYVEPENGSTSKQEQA

T2: Bzz1-2, P38822
T2 sequence (P38822 568-633, looked up): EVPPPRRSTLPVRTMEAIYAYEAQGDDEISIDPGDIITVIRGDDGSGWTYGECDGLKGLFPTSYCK

T3: Lsb1, P53281
T3 sequence (P53281 45-122, looked up): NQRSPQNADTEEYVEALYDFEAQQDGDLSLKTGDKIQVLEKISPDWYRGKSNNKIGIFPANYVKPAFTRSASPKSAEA

T4: Hof1, Q05080
T4 sequence (Q05080 590-669, looked up): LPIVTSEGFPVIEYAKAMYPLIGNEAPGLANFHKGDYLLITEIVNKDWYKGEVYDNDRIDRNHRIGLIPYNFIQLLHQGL

T5: Cyk3, Q07533
T5 sequence (Q07533 1-83, looked up): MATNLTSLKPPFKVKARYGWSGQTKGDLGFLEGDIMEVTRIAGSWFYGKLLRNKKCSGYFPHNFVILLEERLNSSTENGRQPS

T6: Fus1, P11710
T6 sequence (P11710 432-512, looked up): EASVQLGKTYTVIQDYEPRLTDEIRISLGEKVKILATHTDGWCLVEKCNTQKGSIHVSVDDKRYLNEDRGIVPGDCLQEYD

T7: Hse1, P38753
T7 sequence (P38753 208-285, looked up): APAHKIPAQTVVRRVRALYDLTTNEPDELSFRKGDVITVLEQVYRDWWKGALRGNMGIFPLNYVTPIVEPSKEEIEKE

T8: Boi1, P38041
T8 sequence (P38041 1-86, looked up): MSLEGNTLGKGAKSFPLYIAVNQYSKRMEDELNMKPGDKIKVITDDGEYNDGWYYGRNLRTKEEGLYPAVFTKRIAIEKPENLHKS

T9: Myo5, Q04439
T9 sequence (Q04439 1072-1160, looked up): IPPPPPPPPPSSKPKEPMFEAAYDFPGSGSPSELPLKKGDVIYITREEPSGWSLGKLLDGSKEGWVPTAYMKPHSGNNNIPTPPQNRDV

T10: Lsb4, P32793
T10 sequence (P32793 402-468, looked up): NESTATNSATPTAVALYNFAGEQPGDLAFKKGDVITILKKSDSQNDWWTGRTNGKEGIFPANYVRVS

T11: Pin3, Q06449
T11 sequence (Q06449 53-122, looked up): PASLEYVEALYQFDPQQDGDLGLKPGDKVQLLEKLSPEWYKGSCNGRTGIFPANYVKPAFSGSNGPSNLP

T12: Sla1-3, P32790
T12 sequence (P32790 344-424, looked up): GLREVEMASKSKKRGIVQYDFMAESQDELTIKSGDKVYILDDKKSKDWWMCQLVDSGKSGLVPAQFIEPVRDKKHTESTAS

T13: Nbp2, Q12163
T13 sequence (Q12163 103-180, looked up): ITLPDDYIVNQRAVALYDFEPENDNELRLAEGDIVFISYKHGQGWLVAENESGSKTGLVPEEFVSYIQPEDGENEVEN

T14: Abp1, P15891
T14 sequence (P15891 535-592, looked up): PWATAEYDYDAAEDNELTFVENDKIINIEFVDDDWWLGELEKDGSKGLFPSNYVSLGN

T15: Pex13, P80667
T15 sequence (P80667 295-386, looked up): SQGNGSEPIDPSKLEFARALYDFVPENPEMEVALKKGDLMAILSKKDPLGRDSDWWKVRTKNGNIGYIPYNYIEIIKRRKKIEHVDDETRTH

T16: Cdc25, P04821
T16 sequence (P04821 50-136, looked up): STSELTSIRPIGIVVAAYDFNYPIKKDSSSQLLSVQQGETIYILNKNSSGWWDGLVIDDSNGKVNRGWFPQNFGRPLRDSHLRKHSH

T17: Bud14, P27637
T17 sequence (P27637 247-328, looked up): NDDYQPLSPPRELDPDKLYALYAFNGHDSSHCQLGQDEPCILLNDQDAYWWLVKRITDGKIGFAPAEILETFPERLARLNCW

T18: Bzz1-1, P38822
T18 sequence (P38822 478-572, looked up): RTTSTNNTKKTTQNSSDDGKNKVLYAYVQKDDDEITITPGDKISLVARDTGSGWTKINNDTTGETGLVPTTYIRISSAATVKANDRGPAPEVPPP

T19: Bbc1, P47068
T19 sequence (P47068 1-78, looked up): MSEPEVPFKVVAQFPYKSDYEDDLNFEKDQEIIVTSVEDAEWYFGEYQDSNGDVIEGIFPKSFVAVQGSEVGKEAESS

T20: Lsb3, P43603
T20 sequence (P43603 385-451, looked up): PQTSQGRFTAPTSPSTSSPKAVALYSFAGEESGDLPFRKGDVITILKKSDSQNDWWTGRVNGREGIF

T21: Boi2, P39969
T21 sequence (P39969 32-116, looked up): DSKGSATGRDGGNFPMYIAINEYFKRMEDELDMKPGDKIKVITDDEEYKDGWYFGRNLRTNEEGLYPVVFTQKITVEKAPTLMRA


molecular target: T1, Sla1-2, P32790; test: SPOT array; details: median of control spots 712

| SPOT intensity | Binder |
| --- | --- |
| 0 | LKQRFFLMFPKSIIW |
| 3 | SHRLWLYAAPKRPKT |
| 0 | KTRLRPAFIQQLWSS |

molecular target: T2, Bzz1-2, P38822; test: SPOT array; details: median of control spots 4538

| SPOT intensity | Binder |
| --- | --- |
| 0 | LKQRFFLMFPKSIIW |
| 0 | SHRLWLYAAPKRPKT |
| 0 | KTRLRPAFIQQLWSS |

molecular target: T3, Lsb1, P53281; test: SPOT array; details: median of control spots 388

| SPOT intensity | Binder |
| --- | --- |
| 7 | LKQRFFLMFPKSIIW |
| 0 | SHRLWLYAAPKRPKT |
| 0 | KTRLRPAFIQQLWSS |

molecular target: T4, Hof1, Q05080; test: SPOT array; details: median of control spots 4086

| SPOT intensity | Binder |
| --- | --- |
| 5 | LKQRFFLMFPKSIIW |
| 5 | SHRLWLYAAPKRPKT |
| 0 | KTRLRPAFIQQLWSS |

molecular target: Rvs167, P39743; test: SPOT array; details: median of control spots 2707
Sequence (P39743 419-482): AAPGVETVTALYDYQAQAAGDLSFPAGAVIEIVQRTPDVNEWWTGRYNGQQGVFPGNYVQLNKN

| SPOT intensity | Binder |
| --- | --- |
| 0 | LKQRFFLMFPKSIIW |
| 0 | SHRLWLYAAPKRPKT |
| 1 | KTRLRPAFIQQLWSS |

molecular target: T5, Cyk3, Q07533; test: SPOT array; details: median of control spots 1451

| SPOT intensity | Binder |
| --- | --- |
| 4 | LKQRFFLMFPKSIIW |
| 4 | SHRLWLYAAPKRPKT |
| 3 | KTRLRPAFIQQLWSS |

molecular target: T6, Fus1, P11710; test: SPOT array; details: median of control spots 1200

| SPOT intensity | Binder |
| --- | --- |
| 38 | LKQRFFLMFPKSIIW |
| 20 | SHRLWLYAAPKRPKT |
| 7 | KTRLRPAFIQQLWSS |

molecular target: T7, Hse1, P38753; test: SPOT array; details: median of control spots 1727

| SPOT intensity | Binder |
| --- | --- |
| 8 | LKQRFFLMFPKSIIW |
| 8 | SHRLWLYAAPKRPKT |
| 5 | KTRLRPAFIQQLWSS |

molecular target: T8, Boi1, P38041; test: SPOT array; details: median of control spots 1162

| SPOT intensity | Binder |
| --- | --- |
| 2 | LKQRFFLMFPKSIIW |
| 1 | SHRLWLYAAPKRPKT |
| 1 | KTRLRPAFIQQLWSS |

molecular target: T9, Myo5, Q04439; test: SPOT array; details: median of control spots 471

| SPOT intensity | Binder |
| --- | --- |
| 0 | LKQRFFLMFPKSIIW |
| 0 | SHRLWLYAAPKRPKT |
| 0 | KTRLRPAFIQQLWSS |

molecular target: T10, Lsb4, P32793; test: SPOT array; details: median of control spots 397

| SPOT intensity | Binder |
| --- | --- |
| 0 | LKQRFFLMFPKSIIW |
| 0 | SHRLWLYAAPKRPKT |
| 0 | KTRLRPAFIQQLWSS |

molecular target: T11, Pin3, Q06449; test: SPOT array; details: median of control spots 2171

| SPOT intensity | Binder |
| --- | --- |
| 54 | LKQRFFLMFPKSIIW |
| 13 | SHRLWLYAAPKRPKT |
| 15 | KTRLRPAFIQQLWSS |

molecular target: T12, Sla1-3, P32790; test: SPOT array; details: median of control spots 5475

| SPOT intensity | Binder |
| --- | --- |
| 17 | LKQRFFLMFPKSIIW |
| 16 | SHRLWLYAAPKRPKT |
| 33 | KTRLRPAFIQQLWSS |

molecular target: T13, Nbp2, Q12163; test: SPOT array; details: median of control spots 357

| SPOT intensity | Binder |
| --- | --- |
| 9 | LKQRFFLMFPKSIIW |
| 1 | SHRLWLYAAPKRPKT |
| 4 | KTRLRPAFIQQLWSS |

molecular target: T14, Abp1, P15891; test: SPOT array; details: median of control spots 935

| SPOT intensity | Binder |
| --- | --- |
| 63 | LKQRFFLMFPKSIIW |
| 47 | SHRLWLYAAPKRPKT |
| 31 | KTRLRPAFIQQLWSS |

molecular target: Bem1-2, P29366; test: SPOT array; details: median of control spots 4347
Sequence (P29366 139-227): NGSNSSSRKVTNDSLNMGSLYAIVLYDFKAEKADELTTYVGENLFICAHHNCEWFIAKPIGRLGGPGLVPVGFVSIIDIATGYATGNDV

| SPOT intensity | Binder |
| --- | --- |
| 1 | LKQRFFLMFPKSIIW |
| 0 | SHRLWLYAAPKRPKT |
| 0 | KTRLRPAFIQQLWSS |

molecular target: T15, Pex13, P80667; test: SPOT array; details: median of control spots 1341

| SPOT intensity | Binder |
| --- | --- |
| 21 | LKQRFFLMFPKSIIW |
| 8 | SHRLWLYAAPKRPKT |
| 7 | KTRLRPAFIQQLWSS |

molecular target: T16, Cdc25, P04821; test: SPOT array; details: median of control spots 969

| SPOT intensity | Binder |
| --- | --- |
| 25 | LKQRFFLMFPKSIIW |
| 5 | SHRLWLYAAPKRPKT |
| 13 | KTRLRPAFIQQLWSS |

molecular target: T17, Bud14, P27637; test: SPOT array; details: median of control spots 956

| SPOT intensity | Binder |
| --- | --- |
| 27 | LKQRFFLMFPKSIIW |
| 5 | SHRLWLYAAPKRPKT |
| 4 | KTRLRPAFIQQLWSS |

molecular target: GST; test: SPOT array; details: median of control spots 978

| SPOT intensity | Binder |
| --- | --- |
| 0 | LKQRFFLMFPKSIIW |
| 0 | SHRLWLYAAPKRPKT |
| 0 | KTRLRPAFIQQLWSS |

molecular target: Sho1, P40073; test: SPOT array; details: median of control spots 1148
Sequence (P40073 287-367): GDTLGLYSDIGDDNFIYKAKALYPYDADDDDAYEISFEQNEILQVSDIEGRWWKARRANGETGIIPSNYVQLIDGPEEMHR

| SPOT intensity | Binder |
| --- | --- |
| 53 | LKQRFFLMFPKSIIW |
| 39 | SHRLWLYAAPKRPKT |
| 22 | KTRLRPAFIQQLWSS |

molecular target: T18, Bzz1-1, P38822; test: SPOT array; details: median of control spots 4446

| SPOT intensity | Binder |
| --- | --- |
| 0 | LKQRFFLMFPKSIIW |
| 2 | SHRLWLYAAPKRPKT |
| 0 | KTRLRPAFIQQLWSS |

molecular target: T19, Bbc1, P47068; test: SPOT array; details: median of control spots 796

| SPOT intensity | Binder |
| --- | --- |
| 23 | LKQRFFLMFPKSIIW |
| 34 | SHRLWLYAAPKRPKT |
| 17 | KTRLRPAFIQQLWSS |

molecular target: T20, Lsb3, P43603; test: SPOT array; details: median of control spots 406

| SPOT intensity | Binder |
| --- | --- |
| 0 | LKQRFFLMFPKSIIW |
| 5 | SHRLWLYAAPKRPKT |
| 0 | KTRLRPAFIQQLWSS |

molecular target: Bem1-1, P29366; test: SPOT array; details: median of control spots 4282
Sequence (P29366 55-141): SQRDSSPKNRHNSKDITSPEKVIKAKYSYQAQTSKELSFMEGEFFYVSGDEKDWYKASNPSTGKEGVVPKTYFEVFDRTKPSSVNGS

| SPOT intensity | Binder |
| --- | --- |
| 0 | LKQRFFLMFPKSIIW |
| 0 | SHRLWLYAAPKRPKT |
| 1 | KTRLRPAFIQQLWSS |

molecular target: T21, Boi2, P39969; test: SPOT array; details: median of control spots 1161

| SPOT intensity | Binder |
| --- | --- |
| 1 | LKQRFFLMFPKSIIW |
| 0 | SHRLWLYAAPKRPKT |
| 0 | KTRLRPAFIQQLWSS |

molecular target: Myo3, P36006; test: SPOT array; details: median of control spots 468

| SPOT intensity | Binder |
| --- | --- |
| 12 | LKQRFFLMFPKSIIW |
| 6 | SHRLWLYAAPKRPKT |
| 0 | KTRLRPAFIQQLWSS |
